From article PMC5434802

Key:
Assay in all cases: EMSA
Details in all cases: EMSA conditions not in material; end-labelled fragments pre-incubated with Fis and/or FNR before RNA polymerase
[1] = biological target: T1, FNR D154A D154A (Escherichia coli K-12?) (UniProt P0A9E5)
T1 sequence: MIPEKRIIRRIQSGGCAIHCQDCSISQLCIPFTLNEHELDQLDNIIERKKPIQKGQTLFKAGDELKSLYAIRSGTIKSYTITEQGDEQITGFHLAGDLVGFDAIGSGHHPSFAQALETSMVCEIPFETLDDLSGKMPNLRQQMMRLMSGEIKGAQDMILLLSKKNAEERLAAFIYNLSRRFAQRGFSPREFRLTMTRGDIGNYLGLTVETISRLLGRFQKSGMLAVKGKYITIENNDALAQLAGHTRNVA

[2] = biological target: T2, Fis (Escherichia coli K-12?) (UniProt P0A6R3)
T2 sequence: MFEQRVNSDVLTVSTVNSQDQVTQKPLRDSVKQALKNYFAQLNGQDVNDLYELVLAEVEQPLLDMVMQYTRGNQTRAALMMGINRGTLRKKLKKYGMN

[3] = biological target: Fis;FNR D154A D154A (Escherichia coli K-12?;Escherichia coli K-12?) (UniProt P0A6R3+P0A9E5)
[4] = biological target: FNR D154A;RNA polymerase D154A (Escherichia coli K-12?;Escherichia coli) (UniProt P0A9E5+P0A7Z4+P0A8V2+P0A8T7+P0A800+P00579)
[5] = biological target: Fis;FNR D154A;RNA polymerase D154A (Escherichia coli K-12?;Escherichia coli K-12?;Escherichia coli) (UniProt P0A6R3+P0A9E5+P0A7Z4+P0A8V2+P0A8T7+P0A800+P00579)
[6] = biological target: RNA polymerase (Escherichia coli) (UniProt P0A7Z4+P0A8V2+P0A8T7+P0A800+P00579)

Measured: binding

AATTCCTGACTAACTCTAAAGTGGTATTTTACATGCACTTACAATTGATTAAAGACAACATTCACAGTGTGGTTATTTGTTACACTTAGGGGCGAGCAATGTA / AGCTTACATTGCTCGCCCCTAAGTGTAACAAATAACCACACTGTGAATGTTGTCTTTAATCAATTGTAAGTGCATGTAAAATACCACTTTAGAGTTAGTCAGG [pnrf97 EHEC]
binds: [1] | [2] | [3]

AGCTTACATTGCTCGCCCCTATGTGTAACAAATAACCACACTGTGAATGTTGTCTTTAATCAATTGTAAGTGCATGTAAAATACCACTTTAGAGTTAGTCAGG / AATTCCTGACTAACTCTAAAGTGGTATTTTACATGCACTTACAATTGATTAAAGACAACATTCACAGTGTGGTTATTTGTTACACATAGGGGCGAGCAATGTA [pnrf97 E. coli K-12]
binds more weakly: [4] | [5]
binds: all other assays above
